± gives the standard deviation.
Test: protein stability index of a GFP-peptide fusion (GPS, HEK-293T) (PSI 1-6); higher = more stable
[1] = treatment: DMSO, c terminus: a fixed tail appended
[2] = treatment: MLN4924 1 uM, 8 h, c terminus: a fixed tail appended
[3] = treatment: DMSO, c terminus: native
[4] = treatment: MLN4924 1 uM, 8 h, c terminus: native
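Further: 24-mer peptide tiles fused after GFP, lentivirally expressed, FACS-sorted into six equal bins by GFP/DsRed ratio, decoded by Illumina sequencing, PSI is the read-weighted mean bin number.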

Row | Sequence | protein stability index [1] | protein stability index [2] | protein stability index [3] | protein stability index [4]
1 | CDVWSIGCILFEYYRGFTLFQTHE [CLK3] | 3.1 ± 0.48 | 3.25 ± 0.44 | – | –
2 | CFKAAFLDFKDLLESEDWEEDNWD [TEX19] | 2.95 ± 0.2 | 3.24 ± 0.36 | – | –
3 | CFKAKLHRKRGSQPPDMASALTDR [RSPH3] | 3.66 ± 0.26 | 3.95 ± 0.28 | – | –
4 | CGRSEVRPVAPRRPRDAVGQRGAQ [SMAD6] | 4.37 ± 0.24 | 4.57 ± 0.11 | – | –
5 | CIKIWDVTSQATLLTITKAHSNAI [WDR88] | 2.28 ± 0.33 | 2.61 ± 0.28 | – | –
6 | CIPASSSFVYGAVPIGASIYVIGD [GAN] | 2.97 ± 0.65 | 2.48 ± 0.61 | – | –
7 | CKVGASSDPCGQLRPTLLLTSLHH [PNLIPRP1] | 2.1 ± 0.24 | 2.22 ± 0.097 | – | –
8 | CLIQKAQWTVGKLNCPFCGARLGG [RNF180] | 2.15 ± 0.18 | 2.79 ± 0.36 | – | –
9 | CLTCGKSFRQGMHLTRHQRTHTGE [ZNF263] | 4.03 ± 0.23 | 3.98 ± 0.46 | – | –
10 | CMYRHALPPGFVLKKDKKKEEKED [ZC3H15] | 4.58 ± 0.21 | 4.67 ± 0.15 | – | –
11 | CPASNECEITKRRRKACQACRFTK [ESRRA] | 3.94 ± 0.33 | 4.26 ± 0.23 | – | –
12 | CPTFRVSIARLEMGPDEYEEMEEE [FBXO3] | 4.7 ± 0.18 | 5.07 ± 0.21 | – | –
13 | CRGKKPSRIYGQAMAIINGSLYVF [KLHDC10] | 3.22 ± 0.66 | 2.51 ± 0.73 | – | –
14 | CRVFWWLGDRDRSRAALVCRKWNQ [FBXO39] | 2.46 ± 0.87 | 2.06 ± 0.41 | – | –
15 | CSKVSELTERLKVLEAKMTMLTVI [EMID1] | 2.63 ± 0.73 | 2.46 ± 0.38 | – | –
16 | CSRQFPEFQERARKRIRTYLKSCR [NOL4L] | 3.25 ± 0.15 | 3.36 ± 0.2 | – | –
17 | CSTTDHPYKKPYMETSPSEEDSFY [TBX5] | 4.34 ± 0.13 | 4.31 ± 0.2 | – | –
18 | CTDFCLRNLDGTLGYLLDKETLRL [ZER1] | 2 ± 0.23 | 2.13 ± 0.17 | – | –
19 | CVSHLIIVTVHYGCASFIYLRPQS [OR10K2] | 2.99 ± 0.35 | 3.04 ± 0.46 | – | –
20 | DAATTDELSSLGSDSEANGFAERR [TBC1D10A] | 5.47 ± 0.34 | 5.42 ± 0.23 | – | –
21 | DALDSEGRDSEGPAEGEGRLGRCM [KCNG1] | 5.34 ± 0.28 | 5.53 ± 0.21 | – | –
22 | DANTWRLYGGMNYRRLGGGVGVIK [KLHL20] | 2.63 ± 0.24 | 2.54 ± 0.38 | – | –
23 | DCDTSSICEDSFDGRSLSKLNLCE [SCARA5] | 4.84 ± 0.16 | 5.05 ± 0.12 | – | –

Row | Sequence | protein stability index [1] | protein stability index [2] | protein stability index [3] | protein stability index [4]
24 | DCIFDKFECAWNGSDSVIMTGAYN [PPP2R2C] | 2.68 ± 0.3 | 2.74 ± 0.17 | – | –
25 | DDDDDDAQILPSRVQGGCYRFDSS [DRICH1] | 4.65 ± 0.095 | 4.88 ± 0.15 | – | –
26 | DDIVSGRLPCSFVTLALLGSYTVQ [EPB41L3] | 2.72 ± 0.44 | 2.53 ± 0.53 | – | –
27 | DEDFTFGAYQPTVVSSEGRQSRRQ [FBF1] | 4.77 ± 0.24 | 4.89 ± 0.3 | – | –
28 | DFLMCYSVAEGYYSHRETVNGSWY [CASP6] | 2.88 ± 0.8 | 2.86 ± 0.79 | – | –
29 | DGENLKNEEETPSCMASLWTAPLV [CDC25A] | 4.484 ± 0.031 | 4.5 ± 0.19 | – | –
30 | DGKCAYRASYSDGKLKAPPKPCAG [MLH1] | 4.11 ± 0.3 | 4.06 ± 0.056 | – | –
31 | DIAAMTNSLFIDRQKCMAHRTRYP [TEKT4] | 2.45 ± 0.24 | 2.57 ± 0.19 | – | –
32 | DINSVRYYPSGDAFASGSDDATCR [GNB5] | 4.03 ± 0.047 | 4.22 ± 0.16 | – | –
33 | DIVDRGSTNLGVNQAGFTLHSAIY [ADD1] | 2.36 ± 0.16 | 2.49 ± 0.45 | – | –
34 | DLKNVKSKIGSTDNIKYQPKGGQV [MAP2] | 3.24 ± 0.16 | 3.54 ± 0.32 | – | –
35 | DLNIQLLKDGYRLDEIPDDEDLDL [FAM219A] | 5.17 ± 0.16 | 5.16 ± 0.079 | – | –
36 | DLTASHDAALLEMENNHTVAITIL [MTUS2] | 2.86 ± 0.21 | 2.85 ± 0.25 | – | –
37 | DLTSSSSDELSWIIELLEKDGMAF [ELF3] | 2.86 ± 0.34 | 3.19 ± 0.29 | – | –
38 | DNLLQEMLLGGSPSDAPHAHHPLH [HNF4A] | 3.97 ± 0.49 | 4 ± 0.14 | – | –
39 | DPDGEEGSSIPWNHLPDPEIFRQR [ZNF24] | 4.97 ± 0.45 | 5.02 ± 0.15 | – | –
40 | DPDGLVATYISEVHEHDGHLYLGS [APMAP] | 3.87 ± 0.18 | 3.94 ± 0.39 | – | –
41 | DPHTKKALEAHCRADELASQDGR [PPP2R5C] | – | – | 5.16 ± 0.29 | 5.3 ± 0.12
42 | DQDPSVLYFSIHRYEQGRFWPHLK [HDAC6] | 2.25 ± 0.41 | 2.16 ± 0.28 | – | –
43 | DRLRDEELAELEDALRNLKCGSGA [TRADD] | 4.95 ± 0.23 | 4.95 ± 0.24 | – | –
44 | DSARADDARQLFVLAGAAEEGFMT [GNAI1] | 4.21 ± 0.22 | 4.43 ± 0.077 | – | –
45 | DSCDRLTQSWSSQSSFNSLQRVPS [ETS1] | 3.99 ± 0.24 | 4.07 ± 0.23 | – | –
46 | DSSFPPALAEGYRYPELDTPKLDC [TBX6] | 4.7 ± 0.25 | 4.72 ± 0.17 | – | –

Row | Sequence | protein stability index [1] | protein stability index [2] | protein stability index [3] | protein stability index [4]
47 | DSYYRLVIHRALDREQVSSYNITV [PCDHGA10] | 2.87 ± 0.6 | 2.44 ± 0.55 | – | –
48 | DTHNTNNLDTEELCEYFSQHLGEY [NECAB1] | 4.41 ± 0.36 | 4.17 ± 0.33 | – | –
49 | DYIMDEDQSKLAGLLDLNNAILQL [ESRRG] | 2.35 ± 0.25 | 2.6 ± 0.39 | – | –
50 | EAKEAKGSGYEKLGPSRDPDPLNI [RTP4] | 4.9 ± 0.21 | 4.91 ± 0.18 | – | –
51 | EATHEPAAARIRAQVPDTRWSRVG | 4.62 ± 0.31 | 4.05 ± 0.41 | – | –
52 | EAVRQEMRRQEPLPPPPPPSRGGN [WAS] | 5.18 ± 0.21 | 5.19 ± 0.11 | – | –
53 | ECPSMGTNEAACLLDNPLCADVLF [RHOBTB1] | 3.42 ± 0.34 | 3.94 ± 0.48 | – | –
54 | ECRSSVTSDSEGAHVNTLHSGTKR [PHTF1] | 4.87 ± 0.32 | 4.88 ± 0.17 | – | –
55 | ECVASNNVGEISVSTRLTVLREDQ [PTPRD] | 4.63 ± 0.19 | 4.54 ± 0.15 | – | –
56 | EDAEAVEQLREALHEALLEYEAGR [ESRRA] | 4.03 ± 0.35 | 4.26 ± 0.18 | – | –
57 | EDPYMMGRIACANVLSDLYAMGIT [SEPHS2] | 2.39 ± 0.19 | 2.36 ± 0.18 | – | –
58 | EDSINNSLVQLQASHQQQVLPPRQ [MYBL2] | 4.93 ± 0.14 | 4.72 ± 0.19 | – | –
59 | EEAKGALLGTSGLKRRFSRLENRY [DAPK3] | 3.8 ± 0.29 | 3.96 ± 0.51 | – | –
60 | EECPAHLLEDPLCADVILVLQERV [RHOBTB2] | 3.4 ± 0.42 | 3.47 ± 0.52 | – | –
61 | EEEDQHMKLSLGGSEMGLSSHLQS [KLHL13] | 4.95 ± 0.12 | 4.91 ± 0.14 | – | –
62 | EEEEGEEEELIRIFQEQQKKWQQY [FAM9B] | 4.02 ± 0.23 | 4.13 ± 0.28 | – | –
63 | EEEKILRVKLEEDPDGEEGSSIPW [ZNF24] | 5.56 ± 0.13 | 5.58 ± 0.26 | – | –
64 | EEFCEFVKSNTEQMREAFATAFSK [ZBED1] | 3.76 ± 0.27 | 3.98 ± 0.32 | – | –
65 | EEKMETKTESSGIETEPTVHHLPL [EPB41L3] | 5.56 ± 0.37 | 5.49 ± 0.27 | – | –
66 | EELMLVHSLEYIDLMETTQYMNEG [HDAC6] | 3.5 ± 0.2 | 3.41 ± 0.3 | – | –
67 | EERVALNTEIEKLGRSIVSSPQGK [PKD2L1] | 5.06 ± 0.16 | 5.15 ± 0.32 | – | –
68 | EETVTQDCLQLIADSETPTIQKGS [TNFSF13B] | 5.53 ± 0.36 | 5.42 ± 0.14 | – | –
69 | EFDLSPLNLDIGQVYKETRLFLDG [AASDHPPT] | 2.89 ± 0.28 | 2.96 ± 0.27 | – | –

Row | Sequence | protein stability index [1] | protein stability index [2] | protein stability index [3] | protein stability index [4]
70 | EGENYQKGERGEDSSEEKHLEEPG [CHGB] | 5.63 ± 0.39 | 5.57 ± 0.32 | – | –
71 | EGGLYFERRPVAQSTDGARGKRGY [SPSB2] | 4.55 ± 0.33 | 5.03 ± 0.11 | – | –
72 | EGLAFLVSCPEGRADCASESACSS [PWWP2B] | 3.6 ± 0.41 | 3.71 ± 0.24 | – | –
73 | EGQRQAQEYEALLNIKVKLEAEIA [KRT18] | 3.94 ± 0.18 | 4 ± 0.43 | – | –
74 | EHCGAVCFVKDNPQKSYFIRLYGL [WAS] | 2.32 ± 0.35 | 2.31 ± 0.64 | – | –
75 | EHKGWYSWVLSMLYGFLLTFGFIT [CLPTM1] | 2.4 ± 0.56 | 2.62 ± 0.37 | – | –
76 | EHKLKVVRDQISHCTVKLRQTTGL [TRIM9] | 3.35 ± 0.13 | 3.24 ± 0.25 | – | –
77 | EHQNKRSPLHAAAEAGHVDICHML [EHMT1] | 3.98 ± 0.27 | 3.94 ± 0.12 | – | –
78 | EIDEKVTDLVQFLLFKYQMKEPIT [MAGEA10] | 2.35 ± 0.5 | 1.75 ± 0.3 | – | –
79 | EIEQYRLQREKEFKAKEAAALGSR [ATP6V1G1] | 4.15 ± 0.21 | 3.77 ± 0.047 | – | –
80 | EIIEGNTKSHIMLVQRQMSVIEED [NECAB1] | 3.56 ± 0.35 | 3.73 ± 0.26 | – | –
81 | EILEIDDLDAIVPAVKKLKVLSY [CEP70] | – | – | 2.87 ± 0.8 | 3.1 ± 0.041
82 | EILHQQNIHQLQNRLSELEVANKD [SASS6] | 3.99 ± 0.19 | 4.13 ± 0.34 | – | –
83 | EISLEDLIERERSALGPNVTKITL [ZC3H15] | 2.77 ± 0.3 | 2.96 ± 0.48 | – | –
84 | EKALASILLQDHIRDLDVVVVSVA [ATL3] | 2.52 ± 0.65 | 2.21 ± 0.53 | – | –
85 | EKEAKDLTELVQRRITYLQNPKDC [FUT8] | 4.76 ± 0.17 | 4.9 ± 0.13 | – | –
86 | EKEKKNRKGKDKENGSVSSSETPP [EIF5] | 5.58 ± 0.24 | 5.65 ± 0.13 | – | –
87 | EKIHEMVKKNSAKSMGLKKKAFVW [ACSBG2] | 2.49 ± 0.2 | 2.45 ± 0.3 | – | –
88 | EKLAPSEITEELPSSQLMPVKKQL [ZNF396] | 5.17 ± 0.15 | 5.14 ± 0.21 | – | –
89 | EKLTKITRTGPSAWETKKILAVSF [PCMTD2] | 2.57 ± 0.57 | 2.37 ± 0.66 | – | –
